The values below come from CN113501874A (SANGON BIOTECH SHANGHAI CO LTD, dated 2021).

The assay deals with T1, 重组人CD47带his标签的蛋白 (human, UniProt Q08722 19-139, limits assumed).
T1 construct: Immunogen and ELISA coating antigen; also called 重组人CD47 his标签蛋白; 检测抗原; not shown: his tag
Briefly: indirect ELISA; CD47-his coated at 3, 1.5, 0.75 and 0.375 mg/L; K=(N-1)/(N*AB'-AB), mean of 6 K values.

T1 sequence (Q08722 19-139 limits assumed): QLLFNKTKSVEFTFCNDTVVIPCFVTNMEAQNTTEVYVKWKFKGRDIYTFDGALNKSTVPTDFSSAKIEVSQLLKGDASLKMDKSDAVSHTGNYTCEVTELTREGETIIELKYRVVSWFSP

B1: 单克隆细胞株7G7分泌的鼠抗人CD47单克隆抗体 (antibody, V domains shown)
VH: VKLQQSGAELARPGASVKLSCTASGYTFTDYYINWVRQRTGQGLEWIGDINPGRGKTYYIEKFKGKATLTADKSSSTAYMQLSSLTSEDSAVYFCARGGLRRFDYWGQGTTVTVSS
VL: DIELTQSPAIMSVSPGEKVTMTCRASSSVSSSYLHWYQQKSGVSPKLWIYSTSTLASGVPARFSGSGSGTSYSLTISSVEAADAATYYCQQYSGYPYTFGGGTKVEIKR
On to B1, for which the Ka turned out to be 1.39e+08 M⁻¹.
